This note sets out measurements from the Immune Epitope Database (IEDB).

pKd: −log10 of the molar value. Some results are limits rather than exact numbers.

For assay [1], the target named is HLA-A*26:01. The assay is described as follows: IEDB peptide-MHC binding, purified MHC/direct/fluorescence; filed as Kd, often an IC50 or EC50 that approximates it; ≥ and ≤ were set here for values at or beyond the usual limits of such assays.
The next assay has as its target HLA-A*26:02. The description is as above.
Assay [2] deals with HLA-A*01:01. As to the kind of experiment: IEDB peptide-MHC binding, purified MHC/competitive/fluorescence; filed as Kd, often an IC50 or EC50 that approximates it; ≥ and ≤ were set here for values at or beyond the usual limits of such assays.
The target of assay [3] is HLA-A*03:01. The description is as above.
In assay [4] the target is HLA-A*26:01. The assay is described as above.
Assay [5] addresses HLA-B*15:01. Described as above.
Assay [6] deals with HLA-B*58:01. The assay is described as above. The conditions noted are these: source organism: Burkholderia orbicola.
For the next assay, the target named is HLA-A*02:01. As to the kind of experiment: IEDB peptide-MHC binding, purified MHC/direct/fluorescence; filed as Kd, often an IC50 or EC50 that approximates it; ≥ and ≤ were set here for values at or beyond the usual limits of such assays.
Another assay has as its target HLA-A*31:01. The assay is described as above.
The next assay concerns the target HLA-B*27:05. The description is as above.
For the next assay, the target named is HLA-B*40:01. The assay is described as above.
For assay [7], the target named is HLA-B*46:01. The assay is described as above.
The next assay concerns the target HLA-B*48:01. The assay is described as above.
In assay [8] the target is HLA-B*58:01. The assay is described as above.
In assay [9] the target is HLA-A*11:01. The assay is described as follows: IEDB peptide-MHC binding, purified MHC/competitive/fluorescence; filed as Kd, often an IC50 or EC50 that approximates it; ≥ and ≤ were set here for values at or beyond the usual limits of such assays. The conditions noted are these: source organism: Variola virus.
The target in assay [10] is HLA-A*69:01. The description is as above.
Assay [11] concerns the target HLA-B*15:17. The description is as above. Conditions: source organism: Variola virus.
The target in assay [12] is HLA-B*57:01. The description is as above. Conditions: source organism: Variola virus.
The target in another assay is HLA-A*33:01. The assay is described as follows: IEDB peptide-MHC binding, purified MHC/competitive/radioactivity; filed as Kd, often an IC50 or EC50 that approximates it; ≥ and ≤ were set here for values at or beyond the usual limits of such assays. The conditions noted are these: source organism: Vaccinia virus WR.
In another assay the target is HLA-A*68:01. The description is as above. Conditions: source organism: Vaccinia virus WR.
The next assay addresses HLA-A*02:03. As to the kind of experiment: IEDB peptide-MHC binding, purified MHC/direct/fluorescence; filed as Kd, often an IC50 or EC50 that approximates it; ≥ and ≤ were set here for values at or beyond the usual limits of such assays. The conditions noted are these: source organism: Calabazo virus.
Another assay has as its target HLA-A*02:16. The assay is described as above. Conditions: source organism: Calabazo virus.
The target in assay [13] is HLA-A*03:01. Described as above.
A further assay concerns the target HLA-A*68:02. Described as above.
A further assay has as its target HLA-C*14:02. Described as above. The conditions noted are these: source organism: Orthohantavirus andesense.
For another assay, the target named is HLA-C*15:02. The description is as above. The conditions noted are these: source organism: Orthohantavirus andesense.
For assay [14], the target named is HLA-B*18:01. As to the kind of experiment: IEDB peptide-MHC binding, purified MHC/competitive/fluorescence; filed as Kd, often an IC50 or EC50 that approximates it; ≥ and ≤ were set here for values at or beyond the usual limits of such assays. The conditions noted are these: source organism: Orthohantavirus andesense.
Another assay has as its target HLA-B*27:03. The assay is described as above. The conditions noted are these: source organism: Orthohantavirus andesense.
A further assay deals with HLA-B*39:01. Described as above. Conditions: source organism: Orthohantavirus andesense.
Assay [15] has as its target HLA-B*46:01. The description is as above. Conditions: source organism: Orthohantavirus andesense.
A further assay concerns the target HLA-B*51:01. The assay is described as above. The conditions noted are these: source organism: Orthohantavirus andesense.
Assay [16] has as its target HLA-A*01:01. The assay is described as follows: IEDB peptide-MHC binding, purified MHC/direct/fluorescence; filed as Kd, often an IC50 or EC50 that approximates it; ≥ and ≤ were set here for values at or beyond the usual limits of such assays.
A further assay concerns the target HLA-B*07:02. The assay is described as above.
Assay [17] concerns the target HLA-B*15:01. The description is as above.
Assay [18] concerns the target HLA-A*11:01. Described as above. The conditions noted are these: source organism: Coxiella burnetii.
Assay [19] has as its target HLA-A*69:01. The assay is described as above. Conditions: source organism: Coxiella burnetii.
The target of a further assay is HLA-B*08:01. The description is as above. The conditions noted are these: source organism: Coxiella burnetii Q321.
Another assay concerns the target HLA-B*08:02. Described as above. The conditions noted are these: source organism: Coxiella burnetii Q321.
Assay [20] has as its target HLA-B*15:17. Described as above. Conditions: source organism: Coxiella burnetii.
Assay [21] addresses HLA-B*18:01. The assay is described as above. The conditions noted are these: source organism: Coxiella burnetii.
Assay [22] addresses HLA-B*57:01. The description is as above. Conditions: source organism: Coxiella burnetii.
The mark [23] stands for this setting: source organism: Vibrio cholerae V51.
The mark [24] stands for this setting: source organism: Burkholderia orbicola.
Setting [25] is: source organism: Camelpox virus M-96.
[26] abbreviates: source organism: Calabazo virus.
The mark [27] stands for this setting: source organism: Orthohantavirus andesense.
The mark [28] stands for this setting: source organism: Burkholderia mallei.
Setting [29] is: source organism: Burkholderia mallei ATCC 23344.
The mark [30] stands for this setting: source organism: Coxiella burnetii.
Where [31] appears, read: source organism: Coxiella burnetii Q321.

For the sequence AIARGFHFY, the pKd in the assay with HLA-A*26:01 [1] (setting [23]) was 5.97; in the assay with HLA-A*26:02 (setting [23]) it was 6.97.

As for ASAAHLAAY, the pKd was 7.63 in the assay with HLA-A*01:01 [2] (setting [24]); 6.15 in the assay with HLA-A*03:01 [3] (setting [24]); 6.11 in the assay with HLA-A*26:01 [4] (setting [24]); 6.81 with HLA-B*15:01 [5] (setting [24]); 5.90 with HLA-B*58:01 [6].

In the case of ETIEILRNY, the pKd with HLA-A*02:01 (setting [25]) was at most 4.70; in the assay with HLA-A*26:01 [1] (setting [25]), 8.68; with HLA-A*31:01 (setting [25]), at most 4.70; in the assay with HLA-B*27:05 (setting [25]), at most 4.70; with HLA-B*40:01 (setting [25]), at most 4.70; with HLA-B*46:01 [7] (setting [25]), at most 4.70. The pKd with HLA-B*48:01 (setting [25]) is at most 4.70; with HLA-B*58:01 [8] (setting [25]), at most 4.70; with HLA-A*01:01 [2] (source organism: Variola virus), 5.44; in the assay with HLA-A*03:01 [3] (source organism: Variola virus) it was 5.71; in the assay with HLA-A*11:01 [9] it was at most 4.70; with HLA-A*69:01 [10] (source organism: Variola virus), at most 4.70. For the same sequence, the pKd with HLA-B*15:17 [11] was 7.06; with HLA-B*57:01 [12], 6.03; with HLA-A*33:01 it was 5.67; with HLA-A*68:01 it was 7.84.

LVFLGPGLY gave a pKd with HLA-A*01:01 [2] (source organism: Homo sapiens) of 6.66.

For the sequence RMMATKDSF, the pKd with HLA-A*02:03 is at most 4.70; with HLA-A*02:16, at most 4.70; with HLA-A*03:01 [13] (setting [26]) it was at most 4.70; with HLA-A*68:02 (setting [26]) it was at most 4.70; with HLA-B*58:01 [8] (source organism: Orthohantavirus moroense), 8.19; with HLA-C*14:02, 6.80. Moreover, the negative logarithm of the Kd (pKd) with HLA-C*15:02 is at most 4.70; in the assay with HLA-A*26:01 [4] (setting [27]), at most 4.70; with HLA-A*69:01 [10] (setting [27]) it was at most 4.70; in the assay with HLA-B*15:01 [5] (setting [27]), 7.36; with HLA-B*18:01 [14], at most 4.70; with HLA-B*27:03 it was at most 4.70. In addition, the pKd with HLA-B*39:01, with HLA-B*46:01 [15] and in the assay with HLA-B*51:01 was at most 4.70 in each case.

With STYQPLPLY, the negative-log Kd (pKd) with HLA-A*01:01 [16] (setting [28]) was 6.01; with HLA-A*02:01 (setting [28]), at most 4.70; with HLA-A*03:01 [13] (setting [28]) it was at most 4.70; in the assay with HLA-A*26:01 [1] (setting [29]), 7.41; with HLA-A*26:02 (setting [29]), at least 9.00; in the assay with HLA-B*07:02 (setting [28]), at most 4.70. Besides, the results for the pKd with HLA-B*15:01 [17] (setting [28]), with HLA-B*27:05 (setting [28]) and with HLA-B*58:01 [8] (setting [28]) were 7.61, at most 4.70 and 6.71, respectively.

As for VFFKQWFEK, the pKd with HLA-A*01:01 [16] (setting [30]) was at most 4.70; with HLA-A*02:01 (setting [30]), at most 4.70; in the assay with HLA-A*03:01 [13] (setting [30]) it was 6.51; with HLA-A*11:01 [18], 6.79; with HLA-A*26:01 [1] (setting [31]) it was at most 4.70; in the assay with HLA-A*26:02 (setting [31]) it was at most 4.70. The pKd with HLA-A*31:01 (setting [30]) is 7.18; in the assay with HLA-A*68:02 (setting [30]) it was at most 4.70; with HLA-A*69:01 [19] it was at most 4.70; with HLA-B*07:02 (setting [30]), at most 4.70; in the assay with HLA-B*08:01, at most 4.70; in the assay with HLA-B*08:02, at most 4.70. Besides, the pKd with HLA-B*15:01 [17] (setting [30]), in the assay with HLA-B*15:17 [20], with HLA-B*18:01 [21], with HLA-B*27:05 (setting [30]), with HLA-B*40:01 (setting [30]) and with HLA-B*46:01 [7] (setting [30]) was at most 4.70 in each case. Further, the negative logarithm of the Kd (pKd) with HLA-B*48:01 (setting [30]), with HLA-B*57:01 [22] and in the assay with HLA-B*58:01 [8] (setting [30]) was at most 4.70 in each case.
